Experimental data: the supplement of paper PMC5998384

What was measured:
HeLa Kyoto [1] = experiment: solubility change mitosis vs G1/S (difference of NP-40 vs SDS log2 ratios) (log2 ratio difference); higher = more soluble in mitosis
HeLa Kyoto [2] = experiment: melting temperature (median over replicates), in situ; higher = more thermally stable
HeLa Kyoto [3] = experiment: solubility in G1/S (NP-40 vs SDS abundance) (log2 ratio); higher = more soluble; details: cell cycle stage: G1/S
HeLa Kyoto [4] = experiment: thermal stability score vs G1/S (z-score of summed log2 fold changes over temperatures); higher = more thermally stable than in G1/S
[5] = cell cycle stage: early G1 (4.5 h after nocodazole release)
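Wherever melting temperature (median over replicates), in situ is given: HeLa Kyoto cells synchronized by double thymidine or nocodazole block, proteins quantified by TMT10plex mass spectrometry, three independent biological replicates.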
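Wherever solubility change mitosis vs G1/S (difference of NP-40 vs SDS log2 ratios) is given: synchronized HeLa Kyoto cells (double thymidine block for G1/S, nocodazole release for mitosis), protein amounts in NP-40 versus SDS lysates quantified by mass spectrometry, three biological replicates.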
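Wherever solubility in G1/S (NP-40 vs SDS abundance) is given: HeLa Kyoto cells arrested at G1/S by double thymidine block, proteins quantified by TMT10plex mass spectrometry in mild NP-40 versus SDS extracts, three biological replicates.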
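Wherever thermal stability score vs G1/S (z-score of summed log2 fold changes over temperatures) is given: synchronized HeLa Kyoto cells, proteins quantified by TMT10plex mass spectrometry, three biological replicates, mitosis taken 0.5 h after nocodazole release, G1/S directly after double thymidine block.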

| Sequence | solubility change mitosis (log2) (HeLa Kyoto [1]) | melting temperature (HeLa Kyoto [2]; cell cycle stage: G1/S) [°C] | melting temperature (HeLa Kyoto [2]; cell cycle stage: mitosis) [°C] | solubility in G1/S (log2) (HeLa Kyoto [3]) | thermal stability score (HeLa Kyoto [4]; [5]) | thermal stability score (HeLa Kyoto [4]; cell cycle stage: mitosis) |
| --- | --- | --- | --- | --- | --- | --- |
| MIRNGRGAAGGAEQPGPGGRRAVRVWCDGCYDMVHYGHSNQLRQARAMGDYLIVGVHTDEEIAKHKGPPVFTQEERYKMVQAIKWVDEVVPAAPYVTTLETLDKYNCDFCVHGNDITLTVDGRDTYEEVKQAGRYRECKRTQGVSTTDLVGRMLLVTKAHHSSQEMSSEYREYADSFGKCPGGRNPWTGVSQFLQTSQKIIQFASGKEPQPGETVIYVAGAFDLFHIGHVDFLEKVHRLAERPYIIAGLHFDQEVNHYKGKNYPIMNLHERTLSVLACRYVSEVVIGAPYAVTAELLSHFKVDLVCHGKTEIIPDRDGSDPYQEPKRRGIFRQIDSGSNLTTDLIVQRIITNRLEYEARNQKKEAKELAFLEAARQQAAQPLGERDGDF [PCYT2] | -0.199 | 54.1 | 54.9 | 0.000861 | 0.197 | 0.0948 |
| MITSELPVLQDSTNETTAHSDAGSELEETEVKGKRKRGRPGRPPSTNKKPRKSPGEKSRIEAGIRGAGRGRANGHPQQNGEGEPVTLFEVVKLGKSAMQSVVDDWIESYKQDRDIALLDLINFFIQCSGCRGTVRIEMFRNMQNAEIIRKMTEEFDEDSGDYPLTMPGPQWKKFRSNFCEFIGVLIRQCQYSIIYDEYMMDTVISLLTGLSDSQVRAFRHTSTLAAMKLMTALVNVALNLSIHQDNTQRQYEAERNKMIGKRANERLELLLQKRKELQENQDEIENMMNSIFKGIFVHRYRDAIAEIRAICIEEIGVWMKMYSDAFLNDSYLKYVGWTLHDRQGEVRLKCLKALQSLYTNRELFPKLELFTNRFKDRIVSMTLDKEYDVAVEAIRLVTLILHGSEEALSNEDCENVYHLVYSAHRPVAVAAGEFLHKKLFSRHDPQAEEALAKRRGRNSPNGNLIRMLVLFFLESELHEHAAYLVDSLWESSQELLKDWECMTELLLEEPVQGEEAMSDRQESALIELMVCTIRQAAEAHPPVGRGTGKRVLTAKERKTQIDDRNKLTEHFIITLPMLLSKYSADAEKVANLLQIPQYFDLEIYSTGRMEKHLDALLKQIKFVVEKHVESDVLEACSKTYSILCSEEYTIQNRVDIARSQLIDEFVDRFNHSVEDLLQEGEEADDDDIYNVLSTLKRLTSFHNAHDLTKWDLFGNCYRLLKTGIEHGAMPEQIVVQALQCSHYSILWQLVKITDGSPSKEDLLVLRKTVKSFLAVCQQCLSNVNTPVKEQAFMLLCDLLMIFSHQLMTGGREGLQPLVFNPDTGLQSELLSFVMDHVFIDQDEENQSMEGDEEDEANKIEALHKRRNLLAAFSKLIIYDIVDMHAAADIFKHYMKYYNDYGDIIKETLSKTRQIDKIQCAKTLILSLQQLFNELVQEQGPNLDRTSAHVSGIKELARRFALTFGLDQIKTREAVATLHKDGIEFAFKYQNQKGQEYPPPNLAFLEVLSEFSSKLLRQDKKTVHSYLEKFLTEQMMERREDVWLPLISYRNSLVTGGEDDRMSVNSGSSSSKTSSVRNKKGRPPLHKKRVEDESLDNTWLNRTDTMIQTPGPLPAPQLTSTVLRENSRPMGDQIQEPESEHGSEPDFLHNPQMQISWLGQPKLEDLNRKDRTGMNYMKVRTGVRHAVRGLMEEDAEPIFEDVMMSSRSQLEDMNEEFEDTMVIDLPPSRNRRERAELRPDFFDSAAIIEDDSGFGMPMF [STAG1] | 0.0363 | 52 | 50.6 | -0.226 | -0.0959 | -1.71 |
| MIVQRVVLNSRPGKNGNPVAENFRMEEVYLPDNINEGQVQVRTLYLSVDPYMRCRMNEDTGTDYITPWQLSQVVDGGGIGIIEESKHTNLTKGDFVTSFYWPWQTKVILDGNSLEKVDPQLVDGHLSYFLGAIGMPGLTSLIGIQEKGHITAGSNKTMVVSGAAGACGSVAGQIGHFLGCSRVVGICGTHEKCILLTSELGFDAAINYKKDNVAEQLRESCPAGVDVYFDNVGGNISDTVISQMNENSHIILCGQISQYNKDVPYPPPLSPAIEAIQKERNITRERFLVLNYKDKFEPGILQLSQWFKEGKLKIKETVINGLENMGAAFQSMMTGGNIGKQIVCISEEISL [PTGR2] | -0.0529 | 50.5 | 50.6 | 0.0876 | 0.0557 | -0.682 |
| MKAVVQRVTRASVTVGGEQISAIGRGICVLLGISLEDTQKELEHMVRKILNLRVFEDESGKHWSKSVMDKQYEILCVSQFTLQCVLKGNKPDFHLAMPTEQAEGFYNSFLEQLRKTYRPELIKDGKFGAYMQVHIQNDGPVTIELESPAPGTATSDPKQLSKLEKQQQRKEKTRAKGPSESSKERNTPRKEDRSASSGAEGDVSSEREP [DTD1] | 0.00349 | 58.3 | 57.5 | 0.119 | 2.15 | 0.509 |
| MKFAEHLSAHITPEWRKQYIQYEAFKDMLYSAQDQAPSVEVTDEDTVKRYFAKFEEKFFQTCEKELAKINTFYSEKLAEAQRRFATLQNELQSSLDAQKESTGVTTLRQRRKPVFHLSHEERVQHRNIKDLKLAFSEFYLSLILLQNYQNLNFTGFRKILKKHDKILETSRGADWRVAHVEVAPFYTCKKINQLISETEAVVTNELEDGDRQKAMKRLRVPPLGAAQPAPAWTTFRVGLFCGIFIVLNITLVLAAVFKLETDRSIWPLIRIYRGGFLLIEFLFLLGINTYGWRQAGVNHVLIFELNPRSNLSHQHLFEIAGFLGILWCLSLLACFFAPISVIPTYVYPLALYGFMVFFLINPTKTFYYKSRFWLLKLLFRVFTAPFHKVGFADFWLADQLNSLSVILMDLEYMICFYSLELKWDESKGLLPNNSEESGICHKYTYGVRAIVQCIPAWLRFIQCLRRYRDTKRAFPHLVNAGKYSTTFFMVTFAALYSTHKERGHSDTMVFFYLWIVFYIISSCYTLIWDLKMDWGLFDKNAGENTFLREEIVYPQKAYYYCAIIEDVILRFAWTIQISITSTTLLPHSGDIIATVFAPLEVFRRFVWNFFRLENEHLNNCGEFRAVRDISVAPLNADDQTLLEQMMDQDDGVRNRQKNRSWKYNQSISLRRPRLASQSKARDTKVLIEDTDDEANT [XPR1] | -0.121 | 52.2 | 51.1 | -0.193 | -0.783 | -1.57 |
| MKGLYFQQSSTDEEITFVFQEKEDLPVTEDNFVKLQVKACALSQINTKLLAEMKMKKDLFPVGREIAGIVLDVGSKVSFFQPDDEVVGILPLDSEDPGLCEVVRVHEHYLVHKPEKVTWTEAAGSIRDGVRAYTALHYLSHLSPGKSVLIMDGASAFGTIAIQLAHHRGAKVISTACSLEDKQCLERFRPPIARVIDVSNGKVHVAESCLEETGGLGVDIVLDAGVRLYSKDDEPAVKLQLLPHKHDIITLLGVGGHWVTTEENLQLDPPDSHCLFLKGATLAFLNDEVWNLSNVQQGKYLCILKDVMEKLSTGVFRPQLDEPIPLYEAKVSMEAVQKNQGRKKQVVQF [CRYZL1] | -0.249 | 57 | 56.9 | 0.11 | 0.0481 | -1.74 |
| MKGSRIELGDVTPHNIKQLKRLNQVIFPVSYNDKFYKDVLEVGELAKLAYFNDIAVGAVCCRVDHSQNQKRLYIMTLGCLAPYRRLGIGTKMLNHVLNICEKDGTFDNIYLHVQISNESAIDFYRKFGFEIIETKKNYYKRIEPADAHVLQKNLKVPSGQNADVQKTDN [NAA50] | -0.0822 | 53.1 | 53.8 | 0.325 | 0.726 | -0.495 |
| MKIFVGNVDGADTTPEELAALFAPYGTVMSCAVMKQFAFVHMRENAGALRAIEALHGHELRPGRALVVEMSRPRPLNTWKIFVGNVSAACTSQELRSLFERRGRVIECDVVKDYAFVHMEKEADAKAAIAQLNGKEVKGKRINVELSTKGQKKGPGLAVQSGDKTKKPGAGDTAFPGTGGFSATFDYQQAFGNSTGGFDGQARQPTPPFFGRDRSPLRRSPPRASYVAPLTAQPATYRAQPSVSLGAAYRAQPSASLGVGYRTQPMTAQAASYRAQPSVSLGAPYRGQLASPSSQSAAASSLGPYGGAQPSASALSSYGGQAAAASSLNSYGAQGSSLASYGNQPSSYGAQAASSYGVRAAASSYNTQGAASSLGSYGAQAASYGAQSAASSLAYGAQAASYNAQPSASYNAQSAPYAAQQAASYSSQPAAYVAQPATAAAYASQPAAYAAQATTPMAGSYGAQPVVQTQLNSYGAQASMGLSGSYGAQSAAAATGSYGAAAAYGAQPSATLAAPYRTQSSASLAASYAAQQHPQAAASYRGQPGNAYDGAGQPSAAYLSMSQGAVANANSTPPPYERTRLSPPRASYDDPYKKAVAMSKRYGSDRRLAELSDYRRLSESQLSFRRSPTKSSLDYRRLPDAHSDYARYSGSYNDYLRAAQMHSGYQRRM [RBM14] | 0.332 | 47.3 | 46.1 | -0.765 | 1.48 | 2.24 |
| MKKAEMGRFSISPDEDSSSYSSNSDFNYSYPTKQAALKSHYADVDPENQNFLLESNLGKKKYETEFHPGTTSFGMSVFNLSNAIVGSGILGLSYAMANTGIALFIILLTFVSIFSLYSVHLLLKTANEGGSLLYEQLGYKAFGLVGKLAASGSITMQNIGAMSSYLFIVKYELPLVIQALTNIEDKTGLWYLNGNYLVLLVSLVVILPLSLFRNLGYLGYTSGLSLLCMVFFLIVVICKKFQVPCPVEAALIINETINTTLTQPTALVPALSHNVTENDSCRPHYFIFNSQTVYAVPILIFSFVCHPAVLPIYEELKDRSRRRMMNVSKISFFAMFLMYLLAALFGYLTFYEHVESELLHTYSSILGTDILLLIVRLAVLMAVTLTVPVVIFPIRSSVTHLLCASKDFSWWRHSLITVSILAFTNLLVIFVPTIRDIFGFIGASAASMLIFILPSAFYIKLVKKEPMKSVQKIGALFFLLSGVLVMTGSMALIVLDWVHNAPGGGH [SLC38A2] | -0.301 | 57.5 | 57.6 | 0.157 | -0.691 | -0.748 |
| MKKEHVLHCQFSAWYPFFRGVTIKSVILPLPQNVKDYLLDDGTLVVSGRDDPPTHSQPDSDDEAEEIQWSDDENTATLTAPEFPEFATKVQEAINSLGGSVFPKLNWSAPRDAYWIAMNSSLKCKTLSDIFLLFKSSDFITRDFTQPFIHCTDDSPDPCIEYELVLRKWCELIPGAEFRCFVKENKLIGISQRDYTQYYDHISKQKEEIRRCIQDFFKKHIQYKFLDEDFVFDIYRDSRGKVWLIDFNPFGEVTDSLLFTWEELISENNLNGDFSEVDAQEQDSPAFRCTNSEVTVQPSPYLSYRLPKDFVDLSTGEDAHKLIDFLKLKRNQQEDD [CDC123] | -0.111 | 51.7 | 50.8 | -0.058 | 1.5 | 0.565 |
| MKKMSRNVLLQMEEEEDDDDGDIVLENLGQTIVPDLGSLESQHDFRTPEFEEFNGKPDSLFFNDGQRRIDFVLVYEDESRKETNKKGTNEKQRRKRQAYESNLICHGLQLEATRSVLDDKLVFVKVHAPWEVLCTYAEIMHIKLPLKPNDLKNRSSAFGTLNWFTKVLSVDESIIKPEQEFFTAPFEKNRMNDFYIVDRDAFFNPATRSRIVYFILSRVKYQVINNVSKFGINRLVNSGIYKAAFPLHDCKFRRQSEDPSCPNERYLLYREWAHPRSIYKKQPLDLIRKYYGEKIGIYFAWLGYYTQMLLLAAVVGVACFLYGYLNQDNCTWSKEVCHPDIGGKIIMCPQCDRLCPFWKLNITCESSKKLCIFDSFGTLVFAVFMGVWVTLFLEFWKRRQAELEYEWDTVELQQEEQARPEYEARCTHVVINEITQEEERIPFTAWGKCIRITLCASAVFFWILLIIASVIGIIVYRLSVFIVFSAKLPKNINGTDPIQKYLTPQTATSITASIISFIIIMILNTIYEKVAIMITNFELPRTQTDYENSLTMKMFLFQFVNYYSSCFYIAFFKGKFVGYPGDPVYWLGKYRNEECDPGGCLLELTTQLTIIMGGKAIWNNIQEVLLPWIMNLIGRFHRVSGSEKITPRWEQDYHLQPMGKLGLFYEYLEMIIQFGFVTLFVASFPLAPLLALVNNILEIRVDAWKLTTQFRRLVPEKAQDIGAWQPIMQGIAILAVVTNAMIIAFTSDMIPRLVYYWSFSVPPYGDHTSYTMEGYINNTLSIFKVADFKNKSKGNPYSDLGNHTTCRYRDFRYPPGHPQEYKHNIYYWHVIAAKLAFIIVMEHVIYSVKFFISYAIPDVSKRTKSKIQREKYLTQKLLHENHLKDMTKNMGVIAERMIEAVDNNLRPKSE [ANO6] | -0.0681 | 54.6 | 54.3 | 0.0135 | 0.734 | 0.413 |
